Assay results from US20200317768A1 (published 2020).

How the values were obtained:
Assay in all cases: SPR (BIACORE), antibody captured on chip, FcγR as analyte, 25 °C; KD of SG1 divided by KD of the variant
[1] = target: T1, human FcγRIIaR extracellular domain, His-tagged (human, UniProt P12318 34-217)
T1 construct: also called human FcγRIIa (type R); FcgRIIaR; not shown: C-terminal His-tag
T1 chain: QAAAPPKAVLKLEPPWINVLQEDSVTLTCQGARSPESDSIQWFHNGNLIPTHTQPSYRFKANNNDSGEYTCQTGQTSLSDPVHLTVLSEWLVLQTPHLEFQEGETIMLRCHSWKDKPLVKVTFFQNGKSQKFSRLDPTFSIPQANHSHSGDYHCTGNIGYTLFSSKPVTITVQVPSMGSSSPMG
Method: (§1) After the measurement, the antibody captured on the chip was washed off by allowing reaction with 10 mM glycine-HCl, pH1.5 and 25 mM NaOH so that the chip was regenerated and used repeatedly. The sensorgrams obtained as measurement results were analyzed by the 1:1 Langmuir binding model using the BIACORE® Evaluation Software to calculate the binding rate constant ka (L/mol/s) and dissociation rate constant kd (l/s), and the dissociation constant KD (mol/L) was calculated from these values. […] Regarding such interactions, KD values were calculated using the following 1:1 binding model described in BIACORE® T100 Software Handbook BR1006-48 Edition AE.
(§2) The behavior of interacting molecules according to the 1:1 binding model on BIACORE® can be described by Equation 1: Req=C·R max/(KD+C)+RI, wherein, Req is a plot of steady-state binding levels to analyte concentration. C is concentration, RI is bulk refractive index contribution in the sample, and Rmax is analyte binding capacity of the surface. When this equation is rearranged, KD can be expressed as Equation 2: KD=C·Rmax/(Req−RI)−C. KD can be calculated by substituting the values of Rmax, RI, and C into Equation 1 or Equation 2. From the current measurement conditions, RI=0, C=2 μmol/L can be used.

[2] = target: T2, human FcγRIIb extracellular domain, His-tagged (human, UniProt P31994 43-217)
T2 construct: also called FcgRIIb; not shown: C-terminal His-tag
T2 sequence: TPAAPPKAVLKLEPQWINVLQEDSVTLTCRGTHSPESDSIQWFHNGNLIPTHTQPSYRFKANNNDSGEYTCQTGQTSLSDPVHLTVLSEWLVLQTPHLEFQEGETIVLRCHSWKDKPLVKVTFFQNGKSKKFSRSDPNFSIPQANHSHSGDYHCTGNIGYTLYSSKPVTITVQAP
Method: as §1, §2

[3] = target: T3, human FcγRIIIaV extracellular domain, His-tagged (human, UniProt P08637 17-208)
T3 construct: also called human FcγRIIIa (V158 allotype); FcgRIIIaV; not shown: C-terminal His-tag
T3 sequence (P08637 17-208 F176V): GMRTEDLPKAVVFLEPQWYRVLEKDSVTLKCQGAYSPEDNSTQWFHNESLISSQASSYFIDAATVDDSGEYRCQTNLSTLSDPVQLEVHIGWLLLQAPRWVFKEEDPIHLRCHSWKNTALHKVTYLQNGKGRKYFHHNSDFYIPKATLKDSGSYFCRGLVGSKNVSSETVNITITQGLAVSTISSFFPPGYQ
Method: as §1, §2

[4] = target: T4, cynomolgus monkey FcγRIIa1 extracellular domain, His-tagged (cynomolgus monkey)
T4 construct: also called cyno FcγRIIa1; cynoFcgRIIa1; not shown: C-terminal His-tag
T4 chain: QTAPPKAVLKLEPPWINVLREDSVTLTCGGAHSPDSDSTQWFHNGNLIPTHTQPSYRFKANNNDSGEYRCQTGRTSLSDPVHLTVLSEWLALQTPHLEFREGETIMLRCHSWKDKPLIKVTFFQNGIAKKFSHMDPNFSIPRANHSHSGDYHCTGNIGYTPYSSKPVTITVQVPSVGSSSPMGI
Method: as §1, §2

[5] = target: T5, cynomolgus monkey FcγRIIa2 extracellular domain, His-tagged (cynomolgus monkey)
T5 construct: also called cyno FcγRIIa2; cynoFcgRIIa2; not shown: C-terminal His-tag
T5 chain: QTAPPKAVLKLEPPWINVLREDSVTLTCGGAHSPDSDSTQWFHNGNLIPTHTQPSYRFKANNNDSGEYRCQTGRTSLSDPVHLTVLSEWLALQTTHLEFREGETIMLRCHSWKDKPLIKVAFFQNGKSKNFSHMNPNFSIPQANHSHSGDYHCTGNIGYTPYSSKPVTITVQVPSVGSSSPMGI
Method: as §1, §2

[6] = target: T6, cynomolgus monkey FcγRIIa3 extracellular domain, His-tagged (cynomolgus monkey)
T6 construct: also called cyno FcγRIIa3; cynoFcgRIIa3; not shown: C-terminal His-tag
T6 chain: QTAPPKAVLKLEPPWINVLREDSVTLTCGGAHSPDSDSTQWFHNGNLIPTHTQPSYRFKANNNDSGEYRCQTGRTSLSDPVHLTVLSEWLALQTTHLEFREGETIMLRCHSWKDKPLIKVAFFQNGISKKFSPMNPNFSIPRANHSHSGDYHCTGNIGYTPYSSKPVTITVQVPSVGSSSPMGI
Method: as §1, §2

[7] = target: T7, cynomolgus monkey FcγRIIb extracellular domain, His-tagged (cynomolgus monkey)
T7 construct: also called cyno FcγRIIb; cynoFcγRIIb; not shown: C-terminal His-tag
T7 chain: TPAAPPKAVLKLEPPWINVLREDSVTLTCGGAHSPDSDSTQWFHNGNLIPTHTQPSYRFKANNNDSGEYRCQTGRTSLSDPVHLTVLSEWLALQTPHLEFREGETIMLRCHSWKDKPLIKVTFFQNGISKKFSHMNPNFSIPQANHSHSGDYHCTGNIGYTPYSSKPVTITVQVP
Method: as §1, §2

[8] = target: T8, cynomolgus monkey FcγRIIIaS extracellular domain, His-tagged (cynomolgus monkey, UniProt Q8SPW2 21-206 at identity 1.00))
T8 construct: also called cyno FcγRIIIaS; cynoFcγRIIIaS; not shown: C-terminal His-tag
T8 chain: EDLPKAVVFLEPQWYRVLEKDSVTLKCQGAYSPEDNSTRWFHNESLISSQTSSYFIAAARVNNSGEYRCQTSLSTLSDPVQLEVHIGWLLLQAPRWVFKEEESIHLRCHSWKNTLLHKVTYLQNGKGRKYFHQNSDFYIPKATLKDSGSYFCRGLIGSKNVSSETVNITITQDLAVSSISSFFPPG
Method: as §1, §2

[9] = target: T9, human FcγRIIaH extracellular domain, His-tagged (human, UniProt P12318 34-217)
T9 construct: also called human FcγRIIa (type H); FcgRIIaH; not shown: C-terminal His-tag
T9 sequence: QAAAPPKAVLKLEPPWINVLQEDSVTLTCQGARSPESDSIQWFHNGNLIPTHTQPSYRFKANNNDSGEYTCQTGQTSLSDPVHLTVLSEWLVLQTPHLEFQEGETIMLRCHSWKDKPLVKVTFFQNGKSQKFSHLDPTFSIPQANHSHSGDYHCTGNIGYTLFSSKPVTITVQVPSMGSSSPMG
Method: as §1, §2

B1: M103205H795-MY067/M103202L889-SK1 (antibody, human IgG1, kappa)
heavy: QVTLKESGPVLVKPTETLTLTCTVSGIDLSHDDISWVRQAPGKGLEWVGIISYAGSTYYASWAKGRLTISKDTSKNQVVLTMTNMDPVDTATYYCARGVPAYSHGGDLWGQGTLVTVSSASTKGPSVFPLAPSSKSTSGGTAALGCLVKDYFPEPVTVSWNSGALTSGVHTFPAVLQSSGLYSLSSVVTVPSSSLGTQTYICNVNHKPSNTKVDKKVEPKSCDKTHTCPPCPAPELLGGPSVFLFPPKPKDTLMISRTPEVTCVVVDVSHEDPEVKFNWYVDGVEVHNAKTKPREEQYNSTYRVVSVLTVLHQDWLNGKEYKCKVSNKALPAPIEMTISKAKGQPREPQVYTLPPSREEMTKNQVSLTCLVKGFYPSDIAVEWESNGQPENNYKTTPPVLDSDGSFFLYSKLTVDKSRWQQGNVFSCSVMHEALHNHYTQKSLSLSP
light: DIVMTQSPATLSLSPGERATLSCTSSQSVYHANWLSWFQQKPGQPPKLLIYWASTLAYGVPSRFSGSGSGTDFTLTISSLQPEDAATYYCAGGYGGGRYAFGQGTKVEIKRTVAAPSVFIFPPSDEQLKSGTASVVCLLNNFYPREAKVQWKVDNALQSGNSQESVTEQDSKDSTYSLSSTLTLSKADYEKHKVYACEVTHQGLSSPVTKSFNRGEC
notes: Substitution introduced into M103205H795-SG1 and expressed with M103202L889-SK1 as light chain; also called K334M variant of MS1032LO06-SG1
In the case of B1, the “KD fold for humanFcgRs (SG1 = 1)” value [1] is reported as 1.4 fold, the “KD fold for humanFcgRs (SG1 = 1)” value [2] is reported as 1.6 fold and the “KD fold for humanFcgRs (SG1 = 1)” value [3] is reported as 4.05 fold. For the same binder, the “KD fold for cynoFcgRs (SG1 = 1)” value [4] was 1.5 fold, the “KD fold for cynoFcgRs (SG1 = 1)” value [5] was 2.2 fold and the “KD fold for cynoFcgRs (SG1 = 1)” value [6] was 2.5 fold. The “KD fold for cynoFcgRs (SG1 = 1)” value [7] was 1.6 fold, the “KD fold for cynoFcgRs (SG1 = 1)” value [8] was 3.6 fold and the “KD fold for humanFcgRs (SG1 = 1)” value [9] was 1.3 fold.
